Measurements taken from paper PMC10086585 (2023).

Target: human recombinant netrin‐1, on AHC biosensors (human, UniProt O95631 25-604)
Assay: BLI

- Kd: 20.7 nM
B1: fibronectin leucine‐rich transmembrane protein (FLRT1), recombinant human (natural protein)
chain: IDSTTCPSVCRCDNGFIYCNDRGLTSIPADIPDDATTLYLQNNQINNAGIPQDLKTKVNVQVIYLYENDLDEFPINLPRSLRELHLQDNNVRTIARDSLARIPLLEKLHLDDNSVSTVSIEEDAFADSKQLKLLFLSRNHLSSIPSGLPHTLEELRLDDNRISTIPLHAFKGLNSLRRLVLDGNLLANQRIADDTFSRLQNLTELSLVRNSLAAPPLNLPSAHLQKLYLQDNAISHIPYNTLAKMRELERLDLSNNNLTTLPRGLFDDLGNLAQLLLRNNPWFCGCNLMWLRDWVKARAAVVNVRGLMCQGPEKVRGMAIKDITSEMDECFETGPQGGVANAAAKTTASNHASATTPQGSLFTLKAKRPGLRLPDSNIDYPMATGDGAKTLAIHVKALTADSIRITWKATLPASSFRLSWLRLGHSPAVGSITETLVQGDKTEYLLTALEPKSTYIICMVTMETSNAYVADETPVCAKAETADSYGPTTTLNQEQNAGPMASLP
